Results reported in US20260226185A1 (MAYO FOUNDATION FOR MEDICAL EDUCATION AND RESEARCH, published 2026).

Target: T1, human B-cell activating factor receptor (BAFF-R) polypeptide (human, UniProt Q96RJ3 1-184)
T1 sequence: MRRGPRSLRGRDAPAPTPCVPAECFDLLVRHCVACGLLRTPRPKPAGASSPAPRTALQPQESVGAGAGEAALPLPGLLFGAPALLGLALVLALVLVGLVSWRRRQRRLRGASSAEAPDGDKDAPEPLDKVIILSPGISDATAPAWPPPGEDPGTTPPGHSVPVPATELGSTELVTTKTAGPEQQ
Assay: flow cytometry on BAFF-R expressing 293FT cells vs 293FT cells, R-PE goat anti-mouse IgG detection
Protocol: The lead clone was identified and advanced to purification. […] Following two washes in FACS (PBS with 2% bovine serum albumin), cells were incubated with R-PE conjugated goat anti-mouse IgG for 30 minutes at 4° C. Cells were then washed as before and resuspended in 400 μL FACS for analysis on an Attune flow cytometer (Thermo Fisher). […] Anti-BAFF-R monoclonal antibody development was monitored by R-phycoerythrin conjugated goat anti-mouse IgG (BD Bioscience, San Jose, California).

binding result: binds
B1: anti-BAFF-R monoclonal antibody C21 (Clone #1) (antibody, V domains shown)
VH: DVQLVESGGGLVQPGGSRKLSCAASGFTFSSFGMHWVRQAPEKGLEWVAYINSGSSTINYADTVKGRFTISRDNPKNTLFLQMTSLRSEDTAMYYCTIYYYAMDYWGQGTSVTVSS
VL: DIVMSQSPSSLTVSVGEKVSMSCKSSQTLLYSGNQKNYLAWYQQKPGQSPKLLIYWASTRESGVPDRFAGSGSGTDFTLTISSVKAEDLAVYYCQQYYIYPPWTFGGGTKLEIK
notes: Mouse hybridoma antibody, tested as crude supernatant and as purified mAb and detected with R-PE goat anti-mouse IgG; the mouse constant regions and the isotype are not; also called hybridoma clone 21; mAb C21
